Results: PMC11384143, “A pan-allelic human SIRPα-blocking antibody, ES004-B5, promotes tumor killing by enhancing macrophage phagocytosis and subsequently inducing an effective T-cell response” (Antibody Therapeutics, 2024)

How the values were obtained:
[1] = target: T1, 6 × His tagged huSIRPγ ECD recombinant protein (Homo sapiens (Human)., UniProt Q9P1W8); test: SPR; Biacore T200, 25°C; antibody captured on anti-human IgG (Fc) CM5 chip (80 ± 12 RU); 6 × His tagged SIRP analyte 30–0.9375 nM in 1× HBS-EP+; 1:1 binding model; details: both partners purified
T1 construct: signal regulatory protein gamma (SIRPγ, SIRP beta2), human, extracellular domain; also called signal regulatory protein gamma; SIRP beta2; source: bought: KACTUS

[2] = target: T2, cynomolgus SIRPα overexpressed on CHOK1/cSIRPα cells (Macaca fascicularis, UniProt A0A2K5VYQ9); test: flow cytometry on cells; serial dilutions of antibody on CHOK1 cells overexpressing SIRPα, 1 h at 4°C; Alexa Fluor 647 anti-human IgG Fcγ secondary antibody; MFI; details: one partner purified
T2 construct: signal regulatory protein alpha (SIRPα), cynomolgus monkey, overexpressed on CHO-K1 cells; also called cynomolgus SIRPα-expressing cells; source: CHOK1/cSIRPα cell line, bought: Chempartner

[3] = target: T3, 6 × His tagged cynomolgus SIRPα ECD recombinant protein (Macaca fascicularis, UniProt A0A2K5VYQ9); test: SPR; Biacore T200, 25°C; antibody captured on anti-human IgG (Fc) CM5 chip (80 ± 12 RU); 6 × His tagged SIRP analyte 30–0.9375 nM in 1× HBS-EP+; 1:1 binding model; details: both partners purified
T3 construct: signal regulatory protein alpha (SIRPα), cynomolgus monkey, extracellular domain; also called cynomolgus monkey SIRPα; source: bought: KACTUS

T1 sequence (Q9P1W8 29-360): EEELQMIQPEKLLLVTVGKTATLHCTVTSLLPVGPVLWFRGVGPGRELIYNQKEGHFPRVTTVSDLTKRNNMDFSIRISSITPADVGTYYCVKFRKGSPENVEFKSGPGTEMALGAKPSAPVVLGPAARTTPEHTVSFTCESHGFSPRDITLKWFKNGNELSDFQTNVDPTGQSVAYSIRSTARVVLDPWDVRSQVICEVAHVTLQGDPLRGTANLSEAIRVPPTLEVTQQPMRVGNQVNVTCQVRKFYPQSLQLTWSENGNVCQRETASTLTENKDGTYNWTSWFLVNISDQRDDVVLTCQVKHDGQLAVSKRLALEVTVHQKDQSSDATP

Row | binding result [2] | Binder | binding result [1] | binding result [3]
1 |  | hu1H9 (an analogue of FSI-189, Gilead) (antibody, V domains shown, human IgG4) VH: QVQLVQSGAEVKKPGASVKVSCKASGYTFTSYWITWVKQAPGQGLEWIGDIYPGSGSTNHIEKFKSKATLTVDTSISTAYMELSRLRSDDTAVYYCATGYGSSYGYFDYWGQGTLVTVSS VL: DIQMTQSPSSLSASVGDRVTITCRASENIYSYLAWYQQKPGKAPKLLIYTAKTLAEGVPSRFSGSGSGTDFTLTISSLQPEDFATYYCQHQYGPPFTFGQGTKLEIK | binds | 
2 | no binding | HEFLB (an analogue of BI 765063) (antibody, V domains shown, human IgG4; also called analogue of BI 765063 (OSE-172)) VH: EVQLVQSGAEVKKPGESLRISCKASGYSFTSYWVHWVRQMPGKGLEWMGNIDPSDSDTHYSPSFQGHVTLSVDKSISTAYLQLSSLKASDTAMYYCVRGGTGTLAYFAYWGQGTLVTVSS VL: DVVMTQSPLSLPVTLGQPASISCRSSQSLVHSYGNTYLYWFQQRPGQSPRLLIYRVSNRFSGVPDRFSGSGSGTDFTLKISRVEAEDVGVYYCFQGTHVPYTFGGGTKVEIK | no binding (tested: 30 nM (highest analyte concentration)) | no binding (tested: 30 nM (highest analyte concentration))
